Data taken from patent US20250368745A1 (published 2025).
Positions count from the first letter of the chain named.

T1: human IL-18BP (interleukin-18 binding protein, isoform A) (human, UniProt O95998 31-194)
T1 construct: cell assays used Sino Biological 10357-H08H; PBMC assay 1 relies on endogenous IL-18BP; UniProt number is printed as 095998; also called hIL-18BP
T1 sequence: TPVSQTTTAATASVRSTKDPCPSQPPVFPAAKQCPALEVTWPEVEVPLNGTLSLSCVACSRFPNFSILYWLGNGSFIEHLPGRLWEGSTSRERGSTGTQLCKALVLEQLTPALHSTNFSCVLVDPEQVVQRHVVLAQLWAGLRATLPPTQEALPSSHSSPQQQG

T2: cynomolgus IL-18BP (cynomolgus monkey)
T2 construct: Generated in-house; also called cyIL-18BP; cyno IL-18BP
T2 chain: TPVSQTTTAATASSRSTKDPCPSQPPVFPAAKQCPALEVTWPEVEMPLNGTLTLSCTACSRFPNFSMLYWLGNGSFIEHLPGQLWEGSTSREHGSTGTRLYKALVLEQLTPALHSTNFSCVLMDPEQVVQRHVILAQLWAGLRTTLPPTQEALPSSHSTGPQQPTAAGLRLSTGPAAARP

T3: cynomolgus IL-18BP (cynomolgus monkey)
T3 construct: also called cyno IL-18BP; cyIL-18BP
T3 chain: T2 chain

T4: human IL-18BP (human, UniProt O95998 31-194)
T4 construct: UniProt printed as 095998; also called hIL-18BP
T4 sequence: T1 sequence

B1: SA302a heavy chain variant N33bK, C34A (antibody, human IgG1, V domains shown)
VH: QVQLQESGPGLVKPSQTLSLTCTVSGYSITSDYKAHWIRQPPGKGLEWIGYIHYSGSTNYNPSLKSRVTISRDTSKNQFSLKLSSVTAADTAVYYCARNYGSIYVNYFDYWGQGTLVTVSS
VL: EIVLTQSPATLSLSPGERATLSCSASSSVSYMYWYQQKPGQAPRPLIYRTSNLASGIPARFSGSGSGTDFTLTISSLEPEDFAVYYCQQYHSYPTFGGGTKVEIK
notes: library variant, human IgG1/kappa, from supernatant
B2: SA302a heavy chain variant N33bF, C34A (antibody, human IgG1, V domains shown)
VH: B1 VH with K34F
VL: B1 VL
notes: as for B1
B3: SA301a heavy chain variant N33bV, C34S (antibody, human IgG1, V domains shown)
VH: B1 VH with K34V, A35S
VL: B1 VL
notes: as for B1
B4: SA301a heavy chain variant N33bG, C34S (antibody, human IgG1, V domains shown)
VH: B1 VH with K34G, A35S
VL: B1 VL
notes: as for B1
B5: SA302a heavy chain variant N33bH, C34A (antibody, human IgG1, V domains shown)
VH: B1 VH with K34H
VL: B1 VL
notes: as for B1
B6: SA301a heavy chain variant N33bK, C34S (antibody, human IgG1, V domains shown)
VH: B1 VH with A35S
VL: B1 VL
notes: as for B1
B7: SA301a heavy chain variant N33bM, C34S (antibody, human IgG1, V domains shown)
VH: B1 VH with K34M, A35S
VL: B1 VL
notes: as for B1
B8: SA301a heavy chain variant N33bT, C34S (antibody, human IgG1, V domains shown)
VH: B1 VH with K34T, A35S
VL: B1 VL
notes: as for B1
B9: SA301a heavy chain variant N33bQ, C34S (antibody, human IgG1, V domains shown)
VH: B1 VH with K34Q, A35S
VL: B1 VL
notes: as for B1
B10: SA301a heavy chain variant N33bS, C34S (antibody, human IgG1, V domains shown)
VH: B1 VH with K34S, A35S
VL: B1 VL
notes: as for B1
B11: SA302a heavy chain variant N33bI, C34A (antibody, human IgG1, V domains shown)
VH: B1 VH with K34I
VL: B1 VL
notes: as for B1
B12: SA301a heavy chain variant N33bE, C34S (antibody, human IgG1, V domains shown)
VH: B1 VH with K34E, A35S
VL: B1 VL
notes: as for B1
B13: SA301a heavy chain variant N33bY, C34S (antibody, human IgG1, V domains shown)
VH: B1 VH with K34Y, A35S
VL: B1 VL
notes: as for B1
B14: SA301a heavy chain variant N33bL, C34S (antibody, human IgG1, V domains shown)
VH: B1 VH with K34L, A35S
VL: B1 VL
notes: as for B1
B15: SA301a heavy chain variant N33bP, C34S (antibody, human IgG1, V domains shown)
VH: B1 VH with K34P, A35S
VL: B1 VL
notes: as for B1
B16: SA301a heavy chain variant N33bD, C34S (antibody, human IgG1, V domains shown)
VH: B1 VH with K34D, A35S
VL: B1 VL
notes: as for B1
B17: SA301a HC-Y50I (antibody, name in Kabat numbering, V domains shown)
VH: B1 VH with K34N, A35S, Y51I
VL: B1 VL
notes: IgG1 kappa
B18: SA301a HC-Y50S (antibody, name in Kabat numbering, V domains shown)
VH: B1 VH with K34N, A35S, Y51S
VL: B1 VL
notes: IgG1 kappa
B19: SA301a HC-Y50A (antibody, name in Kabat numbering, V domains shown)
VH: B1 VH with K34N, A35S, Y51A
VL: B1 VL
notes: IgG1 kappa
B20: SA301a HC-Y50F (antibody, name in Kabat numbering, V domains shown)
VH: B1 VH with K34N, A35S, Y51F
VL: B1 VL
notes: IgG1 kappa
B21: SA301a HC-Y50G (antibody, name in Kabat numbering, V domains shown)
VH: B1 VH with K34N, A35S, Y51G
VL: B1 VL
notes: IgG1 kappa
B22: SA301a HC-Y50M (antibody, name in Kabat numbering, V domains shown)
VH: B1 VH with K34N, A35S, Y51M
VL: B1 VL
notes: IgG1 kappa
B23: SA301a HC-Y50E (antibody, name in Kabat numbering, V domains shown)
VH: B1 VH with K34N, A35S, Y51E
VL: B1 VL
notes: IgG1 kappa
B24: SA301a HC-Y50L (antibody, name in Kabat numbering, V domains shown)
VH: B1 VH with K34N, A35S, Y51L
VL: B1 VL
notes: IgG1 kappa
B25: SA301a HC-Y50P (antibody, name in Kabat numbering, V domains shown)
VH: B1 VH with K34N, A35S, Y51P
VL: B1 VL
notes: IgG1 kappa
B26: SA301a HC-Y50R (antibody, name in Kabat numbering, V domains shown)
VH: B1 VH with K34N, A35S, Y51R
VL: B1 VL
notes: IgG1 kappa
B27: SA301a HC-Y50D (antibody, name in Kabat numbering, V domains shown)
VH: B1 VH with K34N, A35S, Y51D
VL: B1 VL
notes: IgG1 kappa
B28: SA301a HC-Y50H (antibody, name in Kabat numbering, V domains shown)
VH: B1 VH with K34N, A35S, Y51H
VL: B1 VL
notes: IgG1 kappa
B29: SA301a HC-Y50K (antibody, name in Kabat numbering, V domains shown)
VH: B1 VH with K34N, A35S, Y51K
VL: B1 VL
notes: IgG1 kappa
B30: SA301a HC-Y50Q (antibody, name in Kabat numbering, V domains shown)
VH: B1 VH with K34N, A35S, Y51Q
VL: B1 VL
notes: IgG1 kappa
B31: SA301a HC-Y50V (antibody, name in Kabat numbering, V domains shown)
VH: B1 VH with K34N, A35S, Y51V
VL: B1 VL
notes: IgG1 kappa

What follows are binders tested against T1, human IL-18BP (interleukin-18 binding …) (assay: BLI single-concentration screen, apparent KD).

First: B1
Second: B2
The Kd of the first is 5-fold lower: 0.3 nM for the first, 1.5 nM for the second. The first binds more tightly here.

First: B3
Second: B4
The Kd of the first is 2-fold higher: 0.4 nM for the first, 0.2 nM for the second.

Going from B5 to B6, the Kd falls from 0.8 nM to 0.4 nM (2-fold). The second binds more tightly here.

Going from B7 to B8, the Kd falls from 1.9 nM to 0.3 nM (6.3-fold). The second binds more tightly here.

B9 and B10 are within 1.5-fold of each other in Kd: 1.9 nM for the first, 1.4 nM for the second.

Going from B11 to B12, the Kd falls from 0.6 nM to 0.1 nM (6-fold). The second binds more tightly here.

B13 and B14 are within 1.5-fold of each other in Kd: 1.2 nM for the first, 0.8 nM for the second.

In the case of B15, the Kd is reported as 2.5 nM.

Molecular target: T2, cynomolgus IL-18BP
Test: BLI single-concentration screen, apparent KD

First: B16
Second: B1
The Kd of the first is 4-fold lower: 0.1 nM for the first, 0.4 nM for the second.

First: B2
Second: B3
The Kd of the first is 4.7-fold higher: 1.4 nM for the first, 0.3 nM for the second. The second binds more tightly here.

B4 and B5 are within 1.5-fold of each other in Kd: 0.5 nM for the first, 0.6 nM for the second.

Going from B6 to B7, the Kd rises from 0.9 nM to 1.4 nM (1.6-fold). The first binds more tightly here.

Compared with B8, B9 is 2.8-fold higher in Kd: 0.4 nM for the first, 1.1 nM for the second. The first binds more tightly here.

First: B10
Second: B11
The Kd of the first is 2.5-fold higher: 1 nM for the first, 0.4 nM for the second.

Compared with B12, B13 is 4.5-fold higher in Kd: 0.2 nM for the first, 0.9 nM for the second.

Going from B14 to B15, the Kd rises from 0.6 nM to 1.3 nM (2.2-fold).

Molecular target: T3, cynomolgus IL-18BP
Test: BLI, apparent KD

Compared with B17, B18 is 2.6-fold lower in Kd: 6.42 nM for the first, 2.48 nM for the second.

Compared with B19, B20 is 2.1-fold lower in Kd: 3.8 nM for the first, 1.81 nM for the second. The second binds more tightly here.

First: B21
Second: B22
The Kd of the first is 1.6-fold higher: 2.85 nM for the first, 1.8 nM for the second.

Going from B23 to B24, the Kd falls from 8.97 nM to 1.7 nM (5.3-fold). The second binds more tightly here.

B25 and B26 are within 1.5-fold of each other in Kd: 4.49 nM for the first, 4.98 nM for the second.

Compared with B27, B28 is 4.3-fold lower in Kd: 16.5 nM for the first, 3.87 nM for the second.

Going from B29 to B30, the Kd falls from 2.43 nM to 1.12 nM (2.2-fold). The second binds more tightly here.

B31 was tested, and the Kd was 10.2 nM.

Each binder was assayed against T4, human IL-18BP (assay: BLI, apparent KD).

Compared with B17, B18 is 1.6-fold lower in Kd: 3.37 nM for the first, 2.17 nM for the second.

B19 and B20 are within 1.5-fold of each other in Kd: 2.97 nM for the first, 2.18 nM for the second.

Going from B21 to B22, the Kd rises from 1.03 nM to 2.06 nM (2-fold). The first binds more tightly here.

B23 and B24 are within 1.5-fold of each other in Kd: 3.44 nM for the first, 2.56 nM for the second.

B25 and B26 are within 1.5-fold of each other in Kd: 1.08 nM for the first, 1.19 nM for the second.

Compared with B27, B28 is 2.8-fold lower in Kd: 5.28 nM for the first, 1.87 nM for the second.

B29 and B30 are within 1.5-fold of each other in Kd: 1.08 nM for the first, 1.13 nM for the second.

Work on B31 yielded a Kd of 1.96 nM.
